{"source": "the RNAGym collection of RNA variant scans (doi:10.7554/elife.80360)", "parents": {"B1": {"name": "CPEB3 Ribozyme (parent)", "chain": "GGGGGCCACAGCAGAAGCGUUCACGUCGCGGCCCCUGUCAGAUUCUGGUGAAUCUGCGAAUUCUGCUGU"}}}
{"variants_of": "B1", "assay": "self-cleavage, relative activity (ratio to wild type); higher = more cleavage; co-transcriptional"}
{"variant": "U44G A60G", "self-cleavage": 0.819}
{"variant": "U44G A60U", "self-cleavage": 0.382}
{"variant": "U44G A60C", "self-cleavage": 0.368}
{"variant": "U44G G47A", "self-cleavage": 0.954}
{"variant": "U44G G47C", "self-cleavage": 0.962}
{"variant": "U44G G47U", "self-cleavage": 1.01}
{"variant": "C45U C63A", "self-cleavage": 0.838}
{"variant": "U46A G68C", "self-cleavage": 0.97}
{"variant": "U46A G68A", "self-cleavage": 1.02}
{"variant": "C45U C54A", "self-cleavage": 0.681}
{"variant": "U46A G65U", "self-cleavage": 0.926}
{"variant": "U46C C54G", "self-cleavage": 0.891}
{"variant": "U46C C54A", "self-cleavage": 0.772}
{"variant": "C45A C66G", "self-cleavage": 0.788}
{"variant": "U46A A59G", "self-cleavage": 1.02}
{"variant": "U46A A59C", "self-cleavage": 0.802}
{"variant": "U44G U61C", "self-cleavage": 0.649}
{"variant": "U44G U61G", "self-cleavage": 0.82}
{"variant": "U44G G48C", "self-cleavage": 0.965}
{"variant": "U44C C57G", "self-cleavage": 0.362}
{"variant": "U44C C57A", "self-cleavage": 0.301}
{"variant": "U44C C57U", "self-cleavage": 0.419}
{"variant": "U44A U69G", "self-cleavage": 1.02}
{"variant": "U44G G56U", "self-cleavage": 0.666}
{"variant": "U44C U64G", "self-cleavage": 0.719}
{"variant": "U44C U64A", "self-cleavage": 0.662}
{"variant": "U44G C54G", "self-cleavage": 0.417}
{"variant": "U44G C54U", "self-cleavage": 0.87}
{"variant": "U44G A51G", "self-cleavage": 0.671}
{"variant": "U44G A51U", "self-cleavage": 0.941}
{"variant": "U44G A51C", "self-cleavage": 0.966}
{"variant": "U44C G50C", "self-cleavage": 0.948}
{"variant": "U44C G50U", "self-cleavage": 0.93}
{"variant": "U46C G50C", "self-cleavage": 1.04}
{"variant": "U46C G50A", "self-cleavage": 0.974}
{"variant": "C45U A51C", "self-cleavage": 0.999}
{"variant": "C45U A51U", "self-cleavage": 0.947}
{"variant": "C45A U55A", "self-cleavage": 0.534}
{"variant": "C45A U55G", "self-cleavage": 0.475}
{"variant": "C45A C57G", "self-cleavage": 0.252}
{"variant": "U46C A52C", "self-cleavage": 0.943}
{"variant": "U46C A52G", "self-cleavage": 1}
{"variant": "U44C G68C", "self-cleavage": 0.949}
{"variant": "U44C G68A", "self-cleavage": 0.979}
{"variant": "C45A U67A", "self-cleavage": 0.951}
{"variant": "C45A U67C", "self-cleavage": 0.98}
{"variant": "C45A U67G", "self-cleavage": 1.01}
{"variant": "U46A U67G", "self-cleavage": 1.03}
{"variant": "U46A U67C", "self-cleavage": 1.01}
{"variant": "C45U C57A", "self-cleavage": 0.32}
{"variant": "C45U C57G", "self-cleavage": 0.319}
{"variant": "U46C G56U", "self-cleavage": 0.837}
{"variant": "U44G C63U", "self-cleavage": 0.918}
{"variant": "U44G C63A", "self-cleavage": 0.835}
{"variant": "U44C G48A", "self-cleavage": 1.02}
{"variant": "U44C G48C", "self-cleavage": 1}
{"variant": "U44C G48U", "self-cleavage": 1.02}
{"variant": "C45A U49C", "self-cleavage": 1}
{"variant": "U44C U67G", "self-cleavage": 0.931}
{"variant": "U44C U67A", "self-cleavage": 0.954}
{"variant": "U44C A52G", "self-cleavage": 1.01}
{"variant": "U44C A52C", "self-cleavage": 0.95}
{"variant": "U44C A52U", "self-cleavage": 1}
{"variant": "C45U U67C", "self-cleavage": 0.955}
{"variant": "U46A A60C", "self-cleavage": 0.346}
{"variant": "U46A A60G", "self-cleavage": 0.91}
{"variant": "U46A U69C", "self-cleavage": 1.07}
{"variant": "U46A U69A", "self-cleavage": 0.991}
{"variant": "C45G G48U", "self-cleavage": 1.02}
{"variant": "C45G G48C", "self-cleavage": 1.01}
{"variant": "C45G G48A", "self-cleavage": 1.01}
{"variant": "U46C G65A", "self-cleavage": 0.893}
{"variant": "U46C G65C", "self-cleavage": 0.615}
{"variant": "U46A G50A", "self-cleavage": 0.974}
{"variant": "U46A G50C", "self-cleavage": 0.951}
{"variant": "C45U G48U", "self-cleavage": 1.01}
{"variant": "C45U G48C", "self-cleavage": 0.975}
{"variant": "C45U G48A", "self-cleavage": 0.992}
{"variant": "C45G G56A", "self-cleavage": 0.881}
{"variant": "C45G U49G", "self-cleavage": 0.947}
{"variant": "C45G U49C", "self-cleavage": 0.915}
{"variant": "C45A A52U", "self-cleavage": 0.919}
{"variant": "U44G U69A", "self-cleavage": 1.01}
